From PMC5118228 (EJNMMI Research, 2016)

Assay: in vivo
Conditions: male, athymic nu/nu, mouse, iv, total radioactivity
[1] = 0.3 nmol, uptake in Red blood cell
[2] = 1 nmol, uptake in Red blood cell
[3] = 3 nmol, uptake in Red blood cell

C[C@@H](O)[C@H](NC(=O)[C@@H]1CSSC[C@H](NC(=O)[C@@H](Cc2ccccc2)NC(=O)CN2CCN(CC(=O)O)CCN(CC(=O)O)CCN(CC(=O)O)CC2)C(=O)N[C@@H](Cc2ccc(O)cc2)C(=O)N[C@H](Cc2c[nH]c3ccccc23)C(=O)N[C@@H](CCCCN)C(=O)N[C@@H]([C@@H](C)O)C(=O)N1)C(=O)O [^111In-DOTATATE, metal not drawn]
tissue uptake at 0.05 h (0.3 nmol, uptake in Pituitary): 0.3 %ID/g | tissue uptake at 10 min (0.3 nmol, uptake in Pituitary): 0.2 ± 0.05 %ID/g | tissue uptake at 0.5 h (0.3 nmol, uptake in Pituitary): 0.1 %ID/g | tissue uptake at 1 h (0.3 nmol, uptake in Pituitary): < 0.05 %ID/g | tissue uptake at 0.05 h (0.3 nmol, uptake in Plasma): 13.4 ± 1.4 %ID/g | tissue uptake at 10 min (0.3 nmol, uptake in Plasma): 7.2 ± 2 %ID/g | tissue uptake at 0.5 h (0.3 nmol, uptake in Plasma): 3.4 ± 0.5 %ID/g | tissue uptake at 1 h (0.3 nmol, uptake in Plasma): 0.7 ± 0.2 %ID/g | tissue uptake at 0.05 h [1]: 2.6 ± 0.6 %ID/g | tissue uptake at 10 min [1]: 1.3 ± 0.4 %ID/g | tissue uptake at 0.5 h [1]: 0.6 ± 0.1 %ID/g | tissue uptake at 1 h [1]: < 0.05 %ID/g | tissue uptake at 10 min (0.3 nmol, uptake in Stomach): 3.9 ± 0.4 %ID/g | tissue uptake at 0.5 h (0.3 nmol, uptake in Stomach): 3.5 ± 0.2 %ID/g | tissue uptake at 1 h (0.3 nmol, uptake in Stomach): 3.4 ± 0.8 %ID/g | tissue uptake at 10 min (0.3 nmol, uptake in Tumor): 8 ± 1.2 %ID/g | tissue uptake at 0.5 h (0.3 nmol, uptake in Tumor): 9.9 ± 3 %ID/g | tissue uptake at 1 h (0.3 nmol, uptake in Tumor): 9.9 ± 0.7 %ID/g | tissue uptake at 0.5 h (1 nmol, uptake in Adrenals): 0.5 ± 0.09 %ID/g | tissue uptake at 1 h (1 nmol, uptake in Adrenals): 0.5 ± 0.05 %ID/g | tissue uptake at 0.05 h (1 nmol, uptake in Kidney): 17.5 ± 9.7 %ID/g | tissue uptake at 10 min (1 nmol, uptake in Kidney): 14.2 ± 7 %ID/g | tissue uptake at 0.5 h (1 nmol, uptake in Kidney): 6 ± 1.8 %ID/g | tissue uptake at 1 h (1 nmol, uptake in Kidney): 14.1 ± 3.4 %ID/g | tissue uptake at 0.05 h (1 nmol, uptake in Muscles): 1.2 ± 0.4 %ID/g | tissue uptake at 10 min (1 nmol, uptake in Muscles): 1 ± 0.5 %ID/g | tissue uptake at 0.5 h (1 nmol, uptake in Muscles): 0.2 ± 0.09 %ID/g | tissue uptake at 1 h (1 nmol, uptake in Muscles): < 0.05 %ID/g | tissue uptake at 0.05 h (1 nmol, uptake in Pancreas): 3.5 ± 2.4 %ID/g | tissue uptake at 0.5 h (1 nmol, uptake in Pancreas): 0.7 ± 0.2 %ID/g | tissue uptake at 1 h (1 nmol, uptake in Pancreas): 1.5 ± 0.3 %ID/g | tissue uptake at 0.05 h (1 nmol, uptake in Pituitary): 0.1 ± 0.09 %ID/g | tissue uptake at 10 min (1 nmol, uptake in Pituitary): 0.8 ± 1.4 %ID/g | tissue uptake at 0.5 h (1 nmol, uptake in Pituitary): < 0.05 %ID/g | tissue uptake at 1 h (1 nmol, uptake in Pituitary): < 0.05 %ID/g | tissue uptake at 0.05 h (1 nmol, uptake in Plasma): 11.3 ± 4.9 %ID/g | tissue uptake at 10 min (1 nmol, uptake in Plasma): 7.6 ± 3.1 %ID/g | tissue uptake at 1 h (1 nmol, uptake in Plasma): 0.6 ± 0.2 %ID/g | tissue uptake at 0.05 h [2]: 2.3 ± 0.4 %ID/g | tissue uptake at 10 min [2]: 1.3 ± 0.5 %ID/g | tissue uptake at 0.5 h [2]: 0.3 ± 0.1 %ID/g | tissue uptake at 1 h [2]: 0.4 ± 0.1 %ID/g | tissue uptake at 0.05 h (1 nmol, uptake in Stomach): 2.4 ± 1.1 %ID/g | tissue uptake at 0.5 h (1 nmol, uptake in Stomach): 0.8 ± 0.2 %ID/g | tissue uptake at 0.05 h (1 nmol, uptake in Tumor): 5.6 ± 2 %ID/g | tissue uptake at 10 min (1 nmol, uptake in Tumor): 6.7 ± 2.9 %ID/g | tissue uptake at 0.5 h (1 nmol, uptake in Tumor): 2.9 ± 0.6 %ID/g | tissue uptake at 1 h (1 nmol, uptake in Tumor): 7 ± 1.1 %ID/g | tissue uptake at 10 min (3 nmol, uptake in Adrenals): 1.1 ± 0.7 %ID/g | tissue uptake at 0.5 h (3 nmol, uptake in Adrenals): 0.6 ± 0.2 %ID/g | tissue uptake at 1 h (3 nmol, uptake in Adrenals): 0.3 ± 0.06 %ID/g | tissue uptake at 0.05 h (3 nmol, uptake in Kidney): 19.1 ± 3.1 %ID/g | tissue uptake at 10 min (3 nmol, uptake in Kidney): 14.6 ± 2.9 %ID/g | tissue uptake at 0.5 h (3 nmol, uptake in Kidney): 14.5 ± 1.1 %ID/g | tissue uptake at 1 h (3 nmol, uptake in Kidney): 14.7 ± 2.1 %ID/g | tissue uptake at 0.05 h (3 nmol, uptake in Muscles): 1.3 ± 0.3 %ID/g | tissue uptake at 10 min (3 nmol, uptake in Muscles): 0.8 ± 0.3 %ID/g | tissue uptake at 0.5 h (3 nmol, uptake in Muscles): 0.3 ± 0.1 %ID/g | tissue uptake at 1 h (3 nmol, uptake in Muscles): < 0.05 %ID/g | tissue uptake at 0.05 h (3 nmol, uptake in Pancreas): 2.2 ± 0.4 %ID/g | tissue uptake at 10 min (3 nmol, uptake in Pancreas): 1.6 ± 0.2 %ID/g | tissue uptake at 0.5 h (3 nmol, uptake in Pancreas): 1 ± 0.2 %ID/g | tissue uptake at 1 h (3 nmol, uptake in Pancreas): 0.8 ± 1 %ID/g | tissue uptake at 0.05 h (3 nmol, uptake in Pituitary): 0.2 ± 0.06 %ID/g | tissue uptake at 10 min (3 nmol, uptake in Pituitary): 0.1 ± 0.06 %ID/g | tissue uptake at 0.5 h (3 nmol, uptake in Pituitary): 0.08 ± 0.06 %ID/g | tissue uptake at 1 h (3 nmol, uptake in Pituitary): < 0.05 %ID/g | tissue uptake at 0.05 h (3 nmol, uptake in Plasma): 13.8 ± 1.7 %ID/g | tissue uptake at 10 min (3 nmol, uptake in Plasma): 8.4 ± 0.9 %ID/g | tissue uptake at 1 h (3 nmol, uptake in Plasma): 0.6 ± 0.2 %ID/g | tissue uptake at 10 min [3]: 2.4 ± 0.3 %ID/g | tissue uptake at 0.5 h [3]: 0.6 ± 0.2 %ID/g | tissue uptake at 1 h [3]: < 0.05 %ID/g | tissue uptake at 0.05 h (3 nmol, uptake in Stomach): 3.2 ± 0.5 %ID/g | tissue uptake at 10 min (3 nmol, uptake in Stomach): 2.3 ± 0.2 %ID/g | tissue uptake at 0.5 h (3 nmol, uptake in Stomach): 1.5 ± 0.6 %ID/g | tissue uptake at 1 h (3 nmol, uptake in Stomach): 1.6 ± 0.7 %ID/g | tissue uptake at 0.05 h (3 nmol, uptake in Tumor): 2.9 ± 1.1 %ID/g
